Legend:
MT1-MMP hemopexin domain = target: T1, MT1-MMP hemopexin domain (Homo sapiens, UniProt P50281); experiment: MMP-14 FP competition binding between peptide families
T1 construct: Human MMP-14 PEX protein at 71.1 μM monomer
Experimental: FIG. 6 illustrates an analysis of MT-MMP binding ligands. A: MMP-14 FP direct binding in cell-based selections; 1 nM tracer, 60 min data. 17-98-Sar6-k(FI)-and-17-99-Sar6-k(FI)-bind with Kds of 354 nM and 501 nM respectively. B: competition binding with several combinations of peptides, both fluorescein-labelled or native, from soluble and cell based selections.
FIG. 7 illustrates the competition profile between peptide ligands isolated in this example.
• Human MMP-14 PEX protein at 71.1 μM monomer (previously 77.1 μM) (T-017-011), stored in fridge (4/7/14) • Peptides as described in Results section
Method: • Prepare assay buffer: 20 mM HEPES, 150 mM NaCl, 1 mM CaCl2), 0.1% Tween20 (pH 7.6). Buffer was filtered before use to remove precipitate. • Method according to Example 3 with tracer at 1 nM and MMP-14 PEX at concentrations detailed in the graphs • 60 min data analysed • Results are shown in FIG. 6.

EphA3 = target: T2, EphA3 (Homo sapiens, UniProt P29320); experiment: EphA3 FP competition assay with 67-10-05 as labelled tracer; assay type: binding; settings: tracer 67-10-05
T2 construct: So far all selections have been performed with soluble EphA3 ecto domain
T2 sequence (P29320 21-541 limits assumed): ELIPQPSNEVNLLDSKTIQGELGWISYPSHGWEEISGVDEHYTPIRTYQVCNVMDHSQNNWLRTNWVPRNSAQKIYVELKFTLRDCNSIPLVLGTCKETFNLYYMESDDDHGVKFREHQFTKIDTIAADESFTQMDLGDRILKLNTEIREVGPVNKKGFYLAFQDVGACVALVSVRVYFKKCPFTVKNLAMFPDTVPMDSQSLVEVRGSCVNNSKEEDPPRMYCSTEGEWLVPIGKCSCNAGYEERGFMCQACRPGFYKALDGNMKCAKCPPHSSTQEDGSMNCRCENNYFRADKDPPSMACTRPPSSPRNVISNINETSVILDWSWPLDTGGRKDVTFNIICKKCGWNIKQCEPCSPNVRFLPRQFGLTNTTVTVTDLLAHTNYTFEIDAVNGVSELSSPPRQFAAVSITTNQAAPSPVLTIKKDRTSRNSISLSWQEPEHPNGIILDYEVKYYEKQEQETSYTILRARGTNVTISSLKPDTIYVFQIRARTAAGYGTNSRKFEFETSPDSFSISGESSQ

CCR4 [1] = target: T3, CCR4 (Homo sapiens, UniProt P51679); experiment: PathHunter eXpress CCR4 CHO-K1 β-Arrestin GPCR Assay, agonist format; assay type: cell-based
T3 construct: host or cells: CHO-K1
T3 sequence (P51679 1-360): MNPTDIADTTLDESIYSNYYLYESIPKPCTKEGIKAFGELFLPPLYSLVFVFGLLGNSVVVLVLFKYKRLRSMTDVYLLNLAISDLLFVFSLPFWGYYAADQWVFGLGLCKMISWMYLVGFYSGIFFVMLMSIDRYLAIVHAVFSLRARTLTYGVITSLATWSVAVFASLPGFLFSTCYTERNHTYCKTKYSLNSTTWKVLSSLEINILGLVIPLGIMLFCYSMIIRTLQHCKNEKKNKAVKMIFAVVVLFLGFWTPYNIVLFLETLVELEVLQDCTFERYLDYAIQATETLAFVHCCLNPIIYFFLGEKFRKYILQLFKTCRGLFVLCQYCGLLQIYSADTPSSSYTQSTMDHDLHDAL
Experimental: (§1) The aim of the present experiment was to analyze if if these peptides are functional using a Discoverx Assay, the Beta-Arrestin recruitment assay, to identify agonism or antagonism in the selected peptides.
(§2) Standard protocols used: • PathHunter® eXpress CCR4 CHO-K1 β-Arrestin GPCR Assay. 100 dp (1×96-well)
(§3) The experiment was carried using the manufacturer instructions.
The concentration was increased to test for response at high concentration.

CCR4 [2] = target: T3, CCR4; experiment: PathHunter eXpress CCR4 CHO-K1 β-Arrestin GPCR Assay, antagonist format with CCL22; assay type: cell-based
Experimental: as §1, §2, §3
We therefore used the assay in an antagonist format, using 10 nM CCL22.
We repeated this experiment lowering the concentration of CCL22 from 10 nM to 1 nM to show a full inhibition curve.

**Q.** Which results are given for “CPYSWETCLFGDYRC [Peptide 17-88, peptide ligand family from soluble selections against MT1-MMP hemopexin domain]”?
**A.** binding site on MT1-MMP (MT1-MMP hemopexin domain): binds to the collagen binding site; competition with other peptide families (MT1-MMP hemopexin domain): do not cross compete

**Q.** “CIPDPYQCVILRQPC [67-10-05-N005, EphA3 peptide ligand, 6X6 loops, from soluble selection; used as labelled tracer]” was tested. Which Ki (EphA3) did it give?
**A.** The Ki was 5.39 nM.

B1: CCL22: the natural ligand of CCR4; CCL22 Discoverx (Cat no #92-1006) (protein, UniProt O00626 25-93, looked up)
C-C motif chemokine 22: GPYGANMEDSVCCRDYVRYRLPLRVVKHFYWTSDSCPRPGVVLLTFRDKEICADPRVPWVKMILNKLSQ
**Q.** Which results are given for B1?
**A.** EC50 (CCR4 [1]): 1.65 nM; Raw Data (CCR4 [1]; 0.006 nM): 37757; Raw Data (CCR4 [1]; 0.02 nM): 41715; Raw Data (CCR4 [1]; 0.06 nM): 57093; Raw Data (CCR4 [1]; 0.17 nM): 84488; Raw Data (CCR4 [1]; 0.51 nM): 111988; Raw Data (CCR4 [1]; 1.5 nM): 135687; Raw Data (CCR4 [1]; 4.6 nM): 172692; Raw Data (CCR4 [1]; 13.9 nM): 209362; Raw Data (CCR4 [1]; 41.7 nM): 230085; Raw Data (CCR4 [1]; 125 nM): 249665; Raw Data (CCR4 [1]; 375 nM): 234176; Raw Data (CCR4 [1]; high concentration, 0.001 uM): 16366; Raw Data (CCR4 [1]; high concentration, 0.003 uM): 23261; Raw Data (CCR4 [1]; high concentration, 0.008 uM): 29739; Raw Data (CCR4 [1]; high concentration, 0.023 uM): 47935; Raw Data (CCR4 [1]; high concentration, 0.1 uM): 67642; Raw Data (CCR4 [1]; high concentration, 0.2 uM): 88410; Raw Data (CCR4 [1]; high concentration, 0.6 uM): 101987; Raw Data (CCR4 [1]; high concentration, 1.9 uM): 118822; Raw Data (CCR4 [1]; high concentration, 5.6 uM): 118686; Raw Data (CCR4 [1]; high concentration, 16.7 uM): 130064; Raw Data (CCR4 [1]; high concentration, 50 uM): 122799; Raw Data (CCR4 [2]; 1 nM CCL22, 0.001 uM): 189754; Raw Data (CCR4 [2]; 1 nM CCL22, 0.003 uM): 206356; Raw Data (CCR4 [2]; 1 nM CCL22, 0.008 uM): 204398; Raw Data (CCR4 [2]; 1 nM CCL22, 0.023 uM): 218834; Raw Data (CCR4 [2]; 1 nM CCL22, 0.1 uM): 225758; Raw Data (CCR4 [2]; 1 nM CCL22, 0.2 uM): 245828; Raw Data (CCR4 [2]; 1 nM CCL22, 0.6 uM): 321207; Raw Data (CCR4 [2]; 1 nM CCL22, 1.9 uM): 425613; Raw Data (CCR4 [2]; 1 nM CCL22, 5.6 uM): 422771; Raw Data (CCR4 [2]; 1 nM CCL22, 16.7 uM): 433500; Raw Data (CCR4 [2]; 1 nM CCL22, 50 uM): 508067; Raw Data (CCR4 [2]; 10 nM CCL22, 0.001 uM): 178148; Raw Data (CCR4 [2]; 10 nM CCL22, 0.003 uM): 150444; Raw Data (CCR4 [2]; 10 nM CCL22, 0.008 uM): 136281; Raw Data (CCR4 [2]; 10 nM CCL22, 0.023 uM): 131693; Raw Data (CCR4 [2]; 10 nM CCL22, 0.1 uM): 151947; Raw Data (CCR4 [2]; 10 nM CCL22, 0.2 uM): 169306; Raw Data (CCR4 [2]; 10 nM CCL22, 0.6 uM): 173881; Raw Data (CCR4 [2]; 10 nM CCL22, 1.9 uM): 175875; Raw Data (CCR4 [2]; 10 nM CCL22, 5.6 uM): 212050; Raw Data (CCR4 [2]; 10 nM CCL22, 16.7 uM): 245795; Raw Data (CCR4 [2]; 10 nM CCL22, 50 uM): 223579
